The record followed here is patent publication US12662524B2.

Substrate in test [1]: CP C3-convertase (C4b2a) (Homo sapiens (Human)) (UniProt P0C0L4)
The target in test [2] is AP C3-convertase (C3bBb) (Homo sapiens (Human)) (UniProt P01024).
In test [3] the target is C3b (Homo sapiens (Human)) (UniProt P01024).
For test [4], the target named is C4b (Homo sapiens (Human)) (UniProt P0C0L4).
Test [5] deals with AP C3-convertase (C3bBb) (Homo sapiens (Human)) (UniProt P01024). This is another data set of the same source.
The target is the same in test [6]. This is another data set of the same source.
Substrate in test [7]: CP C3-convertase (C4b2a) (Homo sapiens (Human)) (UniProt P0C0L4)
The source holds these as a separate data set.

Positions count from the first letter of the chain named. Numbers in names are those of the source. Where two headings read alike, the source gives them in different places.

C4b (Homo sapiens (Human)), sequence (P0C0L4 757-1446 limits assumed, chain 1 of 2): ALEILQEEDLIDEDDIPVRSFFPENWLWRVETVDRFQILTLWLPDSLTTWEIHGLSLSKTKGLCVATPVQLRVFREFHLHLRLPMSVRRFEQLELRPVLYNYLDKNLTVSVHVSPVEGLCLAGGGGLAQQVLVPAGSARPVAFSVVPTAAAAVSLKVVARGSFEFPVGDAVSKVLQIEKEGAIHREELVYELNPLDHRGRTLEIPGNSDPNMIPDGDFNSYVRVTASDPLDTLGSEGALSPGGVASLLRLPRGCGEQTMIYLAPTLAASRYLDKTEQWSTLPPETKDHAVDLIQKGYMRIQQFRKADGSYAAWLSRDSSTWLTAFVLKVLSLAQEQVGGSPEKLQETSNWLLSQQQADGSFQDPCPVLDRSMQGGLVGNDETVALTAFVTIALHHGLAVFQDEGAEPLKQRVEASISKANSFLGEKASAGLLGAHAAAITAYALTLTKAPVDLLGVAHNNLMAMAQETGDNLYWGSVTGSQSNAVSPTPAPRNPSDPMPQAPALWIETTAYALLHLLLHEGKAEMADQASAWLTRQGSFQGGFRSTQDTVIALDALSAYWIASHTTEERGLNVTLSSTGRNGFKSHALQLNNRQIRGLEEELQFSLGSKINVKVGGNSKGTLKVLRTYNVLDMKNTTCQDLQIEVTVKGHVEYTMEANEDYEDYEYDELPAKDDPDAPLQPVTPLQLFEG
C4b (Homo sapiens (Human)), sequence (P0C0L4 20-675 limits assumed, chain 2 of 2): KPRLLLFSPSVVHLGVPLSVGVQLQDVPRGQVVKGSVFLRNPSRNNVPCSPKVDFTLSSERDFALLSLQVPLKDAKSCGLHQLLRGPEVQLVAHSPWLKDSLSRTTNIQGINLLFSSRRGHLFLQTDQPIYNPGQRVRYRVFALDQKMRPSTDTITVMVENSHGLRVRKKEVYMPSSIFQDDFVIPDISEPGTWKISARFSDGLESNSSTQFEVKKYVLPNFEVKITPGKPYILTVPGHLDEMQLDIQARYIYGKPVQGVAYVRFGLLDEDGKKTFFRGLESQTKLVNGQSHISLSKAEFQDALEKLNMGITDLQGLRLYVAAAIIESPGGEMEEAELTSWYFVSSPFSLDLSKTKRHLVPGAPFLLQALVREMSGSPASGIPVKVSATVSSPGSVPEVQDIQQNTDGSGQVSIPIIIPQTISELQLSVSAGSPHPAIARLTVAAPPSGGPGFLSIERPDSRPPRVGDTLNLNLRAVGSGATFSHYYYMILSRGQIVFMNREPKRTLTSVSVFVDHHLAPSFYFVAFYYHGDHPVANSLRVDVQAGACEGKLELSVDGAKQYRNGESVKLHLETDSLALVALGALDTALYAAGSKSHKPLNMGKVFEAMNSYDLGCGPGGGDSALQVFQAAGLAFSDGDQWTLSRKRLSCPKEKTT

B1: D2D3M3M4 (Multi-1) (protein)
chain: CEVPTRLNSASLKQPYITQNYFPVGTVVEYECRPGYRREPSLSPKLTCLQNLKWSTAVEFCKKKSCPNPGEIRNGQIDVPGGILFGATISFSCNTGYKLFGSTSSFCLISGSSVQWSDPLPICEKVLCTPPPKIKNGKHTFSEVEVFEYLDAVTYSCDPAPGPDPFSLIGESTIYCGDNSVWSRAAPECKVVKCRFPVVENGKQISGFGKKFYYKATVMFECDKGFYLDGSDTIVCDSNSTWDPPVPKCLKVL
For the molecule B1, the CP-DAA IC50 in test [1] is 22.6 nM. The same molecule came in with an AP-DAA IC50 in test [2] of 1.9 nM. Also, the C3b CFA: time (min.) for 50% cleavage of C3b α′-chain in test [3] was 27.3 min. The same molecule gave a C4b CFA: time (min.) for 50% cleavage of C4b α-chain in test [4] of 443 min.

B2: D2M2-4 (Tetra) (protein)
chain: CEVPTRLNSASLKQPYITQNYFPVGTVVEYECRPGYRRQPSLSPKLTCLQNLKWSTAVEFCKKKSCPNIRDPLNGQAVPANGTYEFGYQMHFICNEGYYLAGEEILYCELKGSVAIWSGKPPICEKVKCTPPPKIKNGKHTFSEVEVFEYLDAVTYSCDPAPGPDPFSLIGESTIYCGDNSVWSRAAPECKVVKCRFPVVENGKQISGFGKKFYYKATVMFECDKGFYLDGSDTIVCDSNSTWDPPVPKCLKVL
Consider B2, for which the AP-DAA in test [5] came out at 12.5 fold.

B3: D2M2-4 (L161K) (protein)
chain: B2 chain with Q39E, N68Y, A101I
For the molecule B3, the AP-DAA in test [6] stood at 3.4 fold. Besides, in test [7], the CP-DAA was 2 fold.

B4: D2M2-4 (Y101N) (protein)
chain: B2 chain with Q39E, A101I, K128L
Take B4: the AP-DAA in test [6] was determined as 7.2 fold.

B5: D2M2-4 (I134A) (protein)
chain: B2 chain with Q39E, N68Y, K128L
In test [6], B5 had an AP-DAA of 6.7 fold. Moreover, the CP-DAA in test [7] is 2 fold.

B6: D2M2-4 (E136Q) (D2) (protein)
chain: B2 chain with N68Y, A101I, K128L
For B6, the AP-DAA in test [6] is 5.6 fold.
